Experiments:
[1] = molecular target: CSF-1R of cynomolgous monocytes (cynomolgous); assay: cell-based or functional assay
[2] = molecular target: T1, human CSF-1R fragment D1-D3 (human, UniProt P07333 20-311); assay: SPR Biacore T100, 37 C, antibody captured, D1-D3 single cycle kinetics
T1 construct: Subcloned into the pCMV-presS-HisAvitag expression vector; not shown: His-Avi tag of the vector pCMV-presS-HisAvitag
Protocol: Antibodies against CSF-1R were captured via amine coupled capture molecules. Using the single cycle kinetics five increasing concentrations of human CSF-1R fragment D1-D3 (SEQ ID NO: 66) were injected. Human CSF-1R fragment D1-D3 was subcloned into pCMV-presS-HisAvitag expression vector.
Single Cycle Kinetics was measured at a flow rate of 30 μL/min by five consecutive injections of the analyte with concentrations, c=7.8, 31.25, 125 500 and 2000 nM, without regeneration. Each injection was 30 seconds long and followed by a dissociation phase of 120 Seconds for the first four injections, and finally 1200 seconds for the highest concentration (=last injection).
Kinetic parameters were calculated by using the usual double referencing (control reference: binding of analyte to capture molecule; Flow Cell: subdomain CSF-1R concentration “0” as Blank) and calculation with model ‘titration kinetics 1:1 binding with draft’.

T1 sequence (P07333 20-311): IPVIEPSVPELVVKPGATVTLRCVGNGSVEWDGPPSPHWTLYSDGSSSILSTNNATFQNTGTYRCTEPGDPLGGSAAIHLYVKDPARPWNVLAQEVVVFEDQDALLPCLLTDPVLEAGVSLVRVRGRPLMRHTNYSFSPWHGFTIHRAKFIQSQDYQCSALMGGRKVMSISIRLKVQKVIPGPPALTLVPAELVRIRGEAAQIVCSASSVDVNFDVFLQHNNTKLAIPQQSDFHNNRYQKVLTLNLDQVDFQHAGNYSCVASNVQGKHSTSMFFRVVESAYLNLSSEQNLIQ

Binder	% inhibition (of survival) = (100% - % survival) [1] [%]	% survival (cynomolgous monocytes, 5 µg/ml antibody) [1] [%]	binding result [2]
Mab 2F11 (antibody, V domains shown, Murine monoclonal antibody from a hybridoma; also called muMab 2F11) VH: QVQLKESGPGLVAPSQSLSITCTVSGFSLTTYDISWIRQSPGKGLEWLGVIWTDGGTNYNSPFMSRLSIRKDNSKSQVFLKMNRLQTDDTAIYYCVRDQRLYFDVWGAGTTVTVSS VL: NIVMTQSPKSMSMSVGERVTLNCKASEDVNTYVSWYQQQPEQSPKLLIYGASNRYTGVPDRFTGGGSTTDFTLTISSVQAEDLADYFCGQSFSYPTFGTGTKLEIK	96	4	no binding (tested: 2000 nM)
Mab 2E10 (antibody, V domains shown, Murine monoclonal antibody from a hybridoma) VH: QVQLKESGPGLVAPSKSLSITCTVSGSSLDSFDISWIRQSPGKGLEWLGVIWTGGGTNYNSGFMSRLRITKDNSKSQVLLKMNSLQSDDTAIYYCVRDPRLYFDVWGAGTTVTVSS VL: NIVMTQSPKSMSMSVGERVTLSCKASEDVVTYVSWYQQKPDQSPKLLIYGASNRYTGVPDRFTGSGSATDFTLTISSVQAEDLADYYCGQTFSYPTFGTGTKLEIK	83	17	no binding (tested: 2000 nM)
Mab 2H7 (antibody, V domains shown, Murine monoclonal antibody from a hybridoma) VH: QVQLKESGPGLVAPSKSLSITCTVSGSSLDSFDISWIRQPPGKGLEWLGVIWTGGGTNYNSGFMSRLRISKDNSKSQVFLKMSSLQSDDTAIYYCVRDPRLYFDVWGAGTTVTVSS VL: NIVMTQSPKSMSMSVGERVTLSCKASEDVVTYVSWYQQKPEQSPKLLIYGASNRYTGVPDRFTGSGSATDFTLTISSIQAEDLADYYCGQTFSYPTFGTGTKLEIK	92	8	–
Mab 1G10 (antibody, V domains shown, Murine monoclonal antibody from a hybridoma) VH: RVQLKESGPGLVAPSQSLSITCTVSGFSLTSYDISWIRQSPGKGLEWLGVIWSGGGTNYNSPFMSRLRISKDDSRSQVFLKVNRLQTDDTAIYYCVRDLRLYFDVWGAGTTVTVSS VL: KIVMTQSPKSMSVSVGERVSLSCKASEDVGTYVSWYQQKPEQSPKLLIYGSSNRYTGVPDRFTGSGSATDFTLTISSVQAEDLADYSCGQSFTYPTFGTGTKLEIK	98	2	no binding (tested: 2000 nM)

Source: patent US20110165156A1 (published 2011)
